Source: PMC7698382
One block for each substance: values may come before it.

How the values were obtained:
[1] = target: Purified human plasmin (human); experiment: protease inhibition assay (residual amidolytic activity, tight-binding inhibitor fit); enzyme (plasmin 3 nM; FVIIa/sTF 20 nM; pKLK and FXIa 1 nM each) incubated with inhibitor (10^-1 to 2 x 10^3 nM; up to 3 µM in Figure 3B) for 1 h at room temperature in TBS pH 7.5 (50 mM Tris-HCl, 100 mM NaCl), 0.1 mg BSA/mL, 2 mM Ca2+; synthetic substrate added to 1 KM; Ki corrected for substrate
[2] = target: Plasma kallikrein (UniProt P03952); experiment: as above
[3] = target: Human factor VIIa in complex with soluble tissue factor (sTF, residues 1-219) (UniProt P08709); experiment: as above
[4] = target: Purified human factor XIa (human) (UniProt P03951); experiment: as above
[5] = target: DIP-δplasmin (active-site blocked δplasmin; recombinant plasmin containing the protease domain and the first kringle domain, treated with DFP); experiment: SPR; Biacore T100, 25 °C; DIP-δplasmin or tPA amine-coupled to CM5 chip; analyte KD1-Y11T/L17R-K_(COOH) 100 to 2000 nM in HBS-P (20 mM HEPES pH 7.4, 100 mM NaCl, 0.005% P20), 10 µL/min, 6 min association, 10 min dissociation; regenerated with 20 mM EACA; 1:1 binding model, Kd = kd/ka
[6] = target: Tissue plasminogen activator (Alteplase) (UniProt P00750); experiment: as above

Substance: KD1-Y11T/L17R-K_(COOH) (60-residue double mutant of human TFPI-2 Kunitz domain 1 with C-terminal IEK), expression host not stated for the experiment (domain or fragment)
Ki [2]: > 3000 nM | Ki [3]: > 3000 nM | Ki [4]: > 3000 nM | Kd [5]: 47.6 nM | koff [5]: 7.13e-05 s⁻¹ | kon [5]: 1490 M⁻¹ s⁻¹ | Kd [6]: 35.4 nM | koff [6]: 0.000105 s⁻¹ | kon [6]: 2910 M⁻¹ s⁻¹

Substance: Wild-type KD1 (Kunitz domain 1 of human tissue factor pathway inhibitor type-2) containing the IIa cleavage site (domain or fragment)
Ki [1]: 6 nM

Substance: KD1-Y11T/L17R-K_(COOH) (60-residue double mutant of human TFPI-2 Kunitz domain 1 with C-terminal IEK), Pichia pastoris expressed (domain or fragment)
Ki [1]: 0.59 nM

More lines, in order of falling Ki [1], values ahead:

Ki [1]: 0.9 nM
Substance: KD1-L17R-K_(COOH) (60-residue single mutant of human TFPI-2 Kunitz domain 1 with C-terminal IEK), E. coli expressed (domain or fragment)

Ki [1]: 0.59 nM
Substance: KD1-Y11T/L17R-K_(COOH) (60-residue double mutant of human TFPI-2 Kunitz domain 1 with C-terminal IEK), E. coli expressed (domain or fragment)
